Measurements published in patent publication US5534410.

How the values were obtained:
[1] = molecular target: Sp1, over-expressed and purified from HeLa cells infected with a vaccinia virus expression vector (Homo sapiens (Human)) (UniProt P08047); assay: 35S-TAF110 (reticulocyte lysate) on DNA-bound Sp1 resin, SDS-PAGE, PhosphorImager
[2] = molecular target: GAL4-Sp1B domain fusion (Homo sapiens (Human)) (UniProt P08047)

Drosophila TAF110 (dTAFII110), full-length
fold greater binding to the Sp1-containing resin than to the resin without Sp1 [1]: 60 fold

Sp1(N539), the gln-rich A and B domains of Sp1 (from UniProt P08047)
transcription of a reporter gene dependent on GAL4 binding sites (CAT), superactivation assay in Drosophila Schneider cells [2]: 50 fold
